4 molecules from patent US20110263454A1, “Methods of Identifying Functional Characteristics of Promoters, Transcription Modifying Proteins and Transcription Modulating Agents” (Salk Institute for Biological Studies, priority 2008, published 2011) can be followed below.

Sequences and labels used below:
B1: TR4: Testicular Orphan Nuclear Receptor 4 (NR2C2), cDNA driver (protein, UniProt P49116 1-596, looked up)
Nuclear receptor subfamily 2 …: MTSPSPRIQIISTDSAVASPQRIQIVTDQQTGQKIQIVTAVDASGSPKQQFILTSPDGAGTGKVILASPETSSAKQLIFTTSDNLVPGRIQIVTDSASVERLLGKTDVQRPQVVEYCVVCGDKASGRHYGAVSCEGCKGFFKRSVRKNLTYSCRSNQDCIINKHHRNRCQFCRLKKCLEMGMKMESVQSERKPFDVQREKPSNCAASTEKIYIRKDLRSPLIATPTFVADKDGARQTGLLDPGMLVNIQQPLIREDGTVLLATDSKAETSQGALGTLANVVTSLANLSESLNNGDTSEIQPEDQSASEITRAFDTLAKALNTTDSSSSPSLADGIDTSGGGSIHVISRDQSTPIIEVEGPLLSDTHVTFKLTMPSPMPEYLNVHYICESASRLLFLSMHWARSIPAFQALGQDCNTSLVRACWNELFTLGLAQCAQVMSLSTILAAIVNHLQNSIQEDKLSGDRIKQVMEHIWKLQEFCNSMAKLDIDGYEYAYLKAIVLFSPDHPGLTSTSQIEKFQEKAQMELQDYVQKTYSEDTYRLARILVRLPALRLMSSNITEELFFTGLIGNVSIDSIIPYILKMETAEYNGQITGASL
B2: HNF4g: Hepatocyte Nuclear Factor γ (NR2A2), cDNA driver (protein, UniProt Q14541 1-408, looked up)
Hepatocyte nuclear factor …: MNTTDNGVNCLCAICGDRATGKHYGASSCDGCKGFFRRSIRKSHVYSCRFSRQCVVDKDKRNQCRYCRLRKCFRAGMKKEAVQNERDRISTRRSTFDGSNIPSINTLAQAEVRSRQISVSSPGSSTDINVKKIASIGDVCESMKQQLLVLVEWAKYIPAFCELPLDDQVALLRAHAGEHLLLGATKRSMMYKDILLLGNNYVIHRNSCEVEISRVANRVLDELVRPFQEIQIDDNEYACLKAIVFFDPDAKGLSDPVKIKNMRFQVQIGLEDYINDRQYDSRGRFGELLLLLPTLQSITWQMIEQIQFVKLFGMVKIDNLLQEMLLGGASNDGSHLHHPMHPHLSQDPLTGQTILLGPMSTLVHADQISTPETPLPSPPQGSGQEQYKIAANQASVISHQHLSKQKQL
B3: RORb: RAR-related Orphan Receptor β (NR1F2), cDNA driver (protein, UniProt Q92753 1-470, looked up)
Nuclear receptor ROR-beta: MCENQLKTKADATAQIEVIPCKICGDKSSGIHYGVITCEGCKGFFRRSQQNNASYSCPRQRNCLIDRTNRNRCQHCRLQKCLALGMSRDAVKFGRMSKKQRDSLYAEVQKHQQRLQEQRQQQSGEAEALARVYSSSISNGLSNLNNETSGTYANGHVIDLPKSEGYYNVDSGQPSPDQSGLDMTGIKQIKQEPIYDLTSVPNLFTYSSFNNGQLAPGITMTEIDRIAQNIIKSHLETCQYTMEELHQLAWQTHTYEEIKAYQSKSREALWQQCAIQITHAIQYVVEFAKRITGFMELCQNDQILLLKSGCLEVVLVRMCRAFNPLNNTVLFEGKYGGMQMFKALGSDDLVNEAFDFAKNLCSLQLTEEEIALFSSAVLISPDRAWLIEPRKVQKLQEKIYFALQHVIQKNHLDDETLAKLIAKIPTITAVCNLHGEKLQVFKQSHPEIVNTLFPPLYKELFNPDCATGCK
B4: TR2: Testicular Orphan Nuclear Receptor 2 (NR2C1), cDNA driver (protein, UniProt P13056 1-603, looked up)
Nuclear receptor subfamily 2 …: MATIEEIAHQIIEQQMGEIVTEQQTGQKIQIVTALDHNTQGKQFILTNHDGSTPSKVILARQDSTPGKVFLTTPDAAGVNQLFFTTPDLSAQHLQLLTDNSPDQGPNKVFDLCVVCGDKASGRHYGAVTCEGCKGFFKRSIRKNLVYSCRGSKDCIINKHHRNRCQYCRLQRCIAFGMKQDSVQCERKPIEVSREKSSNCAASTEKIYIRKDLRSPLTATPTFVTDSESTRSTGLLDSGMFMNIHPSGVKTESAVLMTSDKAESCQGDLSTLANVVTSLANLGKTKDLSQNSNEMSMIESLSNDDTSLCEFQEMQTNGDVSRAFDTLAKALNPGESTACQSSVAGMEGSVHLITGDSSINYTEKEGPLLSDSHVAFRLTMPSPMPEYLNVHYIGESASRLLFLSMHWALSIPSFQALGQENSISLVKAYWNELFTLGLAQCWQVMNVATILATFVNCLHNSLQQDKMSTERRKLLMEHIFKLQEFCNSMVKLCIDGYEYAYLKAIVLFSPDHPSLENMEQIEKFQEKAYVEFQDYITKTYPDDTYRLSRLLLRLPALRLMNATITEELFFKGLIGNIRIDSVIPHILKMEPADYNSQIIGHSI

The first test concerns mLeptin promoter. Kind of test: NHR-promoter luciferase screen, mLeptin promoter. The class given is cell-based, mouse. The conditions noted are these: Table 7; mLeptin. A digest of the protocol: (§1)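 CV-1 cells were co-transfected with 50 ng NHR (homodimer or NHR/RXR heterodimer), 100 ng promoter-luciferase construct and 50 ng LacZ. Luciferase was normalized to LacZ and to a no-NHR/no-ligand control.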
With B1, the “Luc. act., normalized to lacZ” value stood at 7.5 and the “Normalized Luc. act., normalized to control” value came out at 2.6.
Take B2: the “Luc. act., normalized to lacZ” value is 2.4 and the “Normalized Luc. act., normalized to control” value is recorded as 0.8.
As to B3, the “Luc. act., normalized to lacZ” value is listed as 3.3 and the “Normalized Luc. act., normalized to control” value is reported as 1.1.
Turning to B4, the “Luc. act., normalized to lacZ” value amounted to 3.4 and the “Normalized Luc. act., normalized to control” value turned out to be 1.1.

Staying with this test, now noted: Table 6d; luciferase activity relative to control (control = 1.00).
Regarding B1, the “Results of assays of transcription factor (+/- ligand) with mLeptin” value (“Results of assays … with mLeptin” for short) is 2.56.
B2: the “Results of assays … with mLeptin” value worked out at 0.82.
With B3, the “Results of assays … with mLeptin” value came out at 1.12.
Same read-out and setting: with B4 the figure was 1.15.

Staying with this test, now noted: mLeptin promoter-luciferase, NHR +/- ligand, control = 1.0.
On to B1, for which the “luciferase/LacZ, mLeptin (selected results)” value is on record as 2.6.

The subject of a further test is mNPY promoter. In words: NHR-promoter luciferase screen, mNPY promoter. The conditions noted are these: Table 6d; luciferase activity relative to control (control = 1.00). It is filed as cell-based, mouse. In short, it runs like this: as §1
As for B1, the “Results of assays of transcription factor (+/- ligand) with mNPY” value worked out at 2.86.
With B2, the “Results of assays of transcription factor (+/- ligand) with mNPY” value was 0.96.
Same read-out and setting: with B3 the figure was 1.12; with B4, 1.27.

Still in this test, the particulars now being: mNPY promoter; HR component with or without ligand.
On to B1, for which the “Luc. act., normalized to lacZ” value is reported as 239.8.
On to B2, for which the “Luc. act., normalized to lacZ” value amounted to 80.7.
Regarding B3, the “Luc. act., normalized to lacZ” value was 94.2.
For the molecule B4, the “Luc. act., normalized to lacZ” value is 106.6.

Still in this test, the particulars now being: mNPY promoter; HR component with or without ligand; relative to control.
In the case of B1, the “Normalized Luc. act., normalized to control” value worked out at 2.9.
With B2, the “Normalized Luc. act., normalized to control” value worked out at 1.0.
Same read-out and setting: with B3 the figure was 1.1.
B4: the “Normalized Luc. act., normalized to control” value is reported as 1.3.

In a further test the test system is hPPARg1 promoter. Kind of test: NHR-promoter luciferase screen, hPPARg1 promoter. The conditions noted are these: PPARG1 promoter; hormone receptor with or without its ligand. The class given is cell-based, human. In short, it runs like this: as §1
On to B1, for which the “Luc. act., normalized to lacZ” value worked out at 66.2.
Turning to B2, the “Luc. act., normalized to lacZ” value is reported as 42.1.
Consider B3, for which the “Luc. act., normalized to lacZ” value is 51.1.
On to B4, for which the “Luc. act., normalized to lacZ” value stood at 45.5.

Still in this test, the particulars now being: PPARG1 promoter; hormone receptor with or without its ligand; relative to control.
For B1, the “Normalized Luc. act., normalized to control” value is listed as 1.0.
In the case of B2, the “Normalized Luc. act., normalized to control” value stood at 0.6.
In the case of B3, the “Normalized Luc. act., normalized to control” value was 0.7.
Consider B4, for which the “Normalized Luc. act., normalized to control” value was 0.7.

The test is the same for the next values; noted with them: Table 6d; luciferase activity relative to control (control = 1.00).
As to B1, the “Results of assays of transcription factor (+/- ligand) with hPPARg1” value was found to be 0.96.
Same read-out and setting: in the case of B2 it was 0.61; in that of B3, 0.74; in that of B4, 0.66.

A further test has as its system hPPARg2 promoter. In words: NHR-promoter luciferase screen, hPPARg2 promoter. It is filed as cell-based, human. To be noted: PPARG2 promoter; hormone receptor with or without its ligand. In short, it runs like this:
as §1
As to B1, the “Luc. act., normalized to lacZ” value turned out to be 3.3.
On the same count and under the same terms, in the case of B2 it was 1.5.
With B3, the “Luc. act., normalized to lacZ” value was 1.8.
With B4, the “Luc. act., normalized to lacZ” value was 1.9.

The test is the same for the next values; noted with them: PPARG2 promoter; hormone receptor with or without its ligand; relative to control.
In the case of B1, the “Normalized Luc. act., normalized to control” value is reported as 1.6.
Turning to B2, the “Normalized Luc. act., normalized to control” value came out at 0.8.
The same measure, in the same setting: in the case of B3 it was 0.9; in that of B4, 1.0.

Still in this test, the particulars now being: Table 6d; luciferase activity relative to control (control = 1.00).
With B1, the “Results of assays of transcription factor (+/- ligand) with hPPARg2” value came to 1.65.
Still for that read-out and setting: with B2 the figure was 0.76; with B3, 0.89; with B4, 0.95.

The test system of a further test is mPer1 promoter. In words: NHR-promoter luciferase screen, mPer1 promoter. It is filed as cell-based, mouse. To be noted: Per1 promoter reporter; co-transfected HR, with or without its ligand. In short, it runs like this:
as §1
With B1, the “Luc. act., normalized to lacZ” value is reported as 225.6.
As for B2, the “Luc. act., normalized to lacZ” value is recorded as 116.1.
As for B3, the “Luc. act., normalized to lacZ” value worked out at 112.0.
In the case of B4, the “Luc. act., normalized to lacZ” value is given as 103.1.

The same test, now with this note: Per1 promoter reporter; co-transfected HR, with or without its ligand; relative to control.
As to B1, the “Normalized Luc. act., normalized to control” value came to 1.6.
On the same count and under the same terms, with B2 the figure was 0.8; with B3, 0.8.
B4: the “Normalized Luc. act., normalized to control” value came to 0.7.

The test is the same for the next values; noted with them: mPer1 promoter-luciferase, CV-1 cells, NHR +/- ligand, control = 1.00.
As for B1, the “luciferase activity normalized to lacZ activity and to a control, mPer1” value (shortened to “luciferase activity normalized”) stood at 1.57.
With B2, the “luciferase activity normalized” value was 0.81.
On to B3, for which the “luciferase activity normalized” value amounted to 0.78.
B4: the “luciferase activity normalized” value was 0.72.
